Results: patent US20240343803A1 (SHANDONG SIMCERE BIOPHARMACEUTICAL, published 2024)

Assays:
[1] = biological target: T1, human PVRIG-his (AcroBiosystems, Cat NO. PVG-H52H4) (human, UniProt Q6DKI7 41-171, limits assumed); experiment: ELISA, coated human PVRIG-his; binding ELISA, Table 23
T1 construct: Bought reagent; also called human PVRIG protein
T1 sequence (looked up): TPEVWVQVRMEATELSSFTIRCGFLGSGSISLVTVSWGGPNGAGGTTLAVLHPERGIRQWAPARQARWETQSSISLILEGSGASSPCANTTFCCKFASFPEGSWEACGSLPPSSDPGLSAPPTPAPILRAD
Description: The ELISA plate was pre-coated with 100 μL/well of 0.5 μg/mL human PVRIG-his (AcroBiosystems, Cat NO. PVG-H52H4) or cynomolgus monkey PVRIG (Novoprotein, Cat NO. C09B). […] A HRP substrate, TMB (Thermo, Cat NO. 34029) was added into wells after washing the plate again for color development. After adding a termination solution to terminate the reaction, the absorbance value was read by a microplate reader (MD i3×). An antibody binding curve was drawn with concentration of antibodies as the abscissa and the corresponding OD value as the ordinate. The EC50 value was calculated by using a Four Parameter Logistic Fit (GraphPadPrism9). The smaller the EC50 value, the stronger the ability of the antibodies binds to human or cynomolgus monkey PVRIG. The positive control antibodies are COM701-hIgG1 (Patent No.:US20180244774A1), COM701-hIgG4 (patent No.: US20180244774A1) and SRF813-hIgG1 (Patent No.:US20200040081A1); and the negative control antibodies are anti-HA HcAb-hIgG1 (Chengdu NB Biolab, Cat NO. NBR022), anti-CD38 HcAb-hIgG1 (in-house) and anti-Fluorescein-hIgG1 (in house).

[2] = biological target: T2, human PVRIG on FlpinCHO-PVRIG cells (human, UniProt Q6DKI7 41-326); experiment: FACS, FlpinCHO-PVRIG cells; AUC of MFI curve relative to COM701-hIgG1
T2 construct: whole, on cells
T2 sequence (looked up): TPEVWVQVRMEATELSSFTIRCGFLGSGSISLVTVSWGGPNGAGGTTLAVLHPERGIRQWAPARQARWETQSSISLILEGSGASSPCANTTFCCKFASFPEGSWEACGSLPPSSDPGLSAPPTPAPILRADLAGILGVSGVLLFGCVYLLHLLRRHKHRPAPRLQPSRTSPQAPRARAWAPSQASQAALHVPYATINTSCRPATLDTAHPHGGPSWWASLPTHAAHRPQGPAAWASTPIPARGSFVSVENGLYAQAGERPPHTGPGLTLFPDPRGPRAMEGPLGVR
Description: (§1) The Ham's F12 (Gibico, 21127-022) complete medium containing 10% FBS was then added to terminate the digestion and acquire cell suspension. After counting with a cell counter (Beckman Coulter, Vi-CELL), an appropriate amount of cell suspension was centrifuged at 350×g to remove the supernatant, washed twice with PBS, stained with Zombie violet (Biolegend, 423114) and incubated at room temperature for 20 minutes. After incubation, the cells were added with staining buffer (2% FBS+PBS) to stop staining, centrifuged at 350×g to remove the supernatant, washed twice and resuspended with staining buffer to a density of 2×10⁶ cells/mL. The cells were plated into a 96-well plate (50 μL of cell suspension per well) for further use. The antibodies were diluted from the highest concentration of 46 nM (two-fold concentration) with staining buffer by 3.3-fold serial dilution. The diluted antibodies were added to the well containing 50 μL of cell suspension. The plate was placed on a microplate shaker at 400 rpm for 1 minute to fully mix the antibodies and cells, and then incubated at 4° C. for 30 minutes. After the incubation, the cells were washed twice with staining buffer (200 μL per well) and centrifuged at 350×g for 5 minutes to discard the supernatant. The PE goat anti-human IgG Fc antibody (ebioscience, 12-4998-82) was diluted 250 times with staining buffer, added into the washed wells (100 μL per well), mixed well, and stained at 4° C. for 30 minutes. After staining, the cells were washed twice with staining buffer, finally resuspended with 200 μL staining buffer and analyzed by flow cytometry (BD, Canto II). The stronger the signal, the stronger the ability of the antibodies binds to PVRIG. An antibody binding curve was drawn with concentration of antibodies as the abscissa and the corresponding Mean Fluorescence Intensity (MFI) as the ordinate. The AUC value of the curve was calculated by using a Four Parameter Logistic Fit (GraphPadPrism9). The stronger the AUC value, the stronger the ability of the antibodies binds to FlpinCHO-PVRIG and FlpinCHO-cyno PVRIG. […] The binding activity of the antibodies was normalized to the positive control COM701-hIgG1 and SRF813-hIgG1.

[3] = biological target: T3, cynomolgus monkey PVRIG on FlpinCHO-cyno PVRIG cells (cynomolgus monkey, UniProt A0A2K5WVV8 41-322); experiment: FACS, FlpinCHO-cyno PVRIG cells; AUC of MFI curve relative to SRF813-hIgG1
T3 construct: whole, on cells
T3 sequence: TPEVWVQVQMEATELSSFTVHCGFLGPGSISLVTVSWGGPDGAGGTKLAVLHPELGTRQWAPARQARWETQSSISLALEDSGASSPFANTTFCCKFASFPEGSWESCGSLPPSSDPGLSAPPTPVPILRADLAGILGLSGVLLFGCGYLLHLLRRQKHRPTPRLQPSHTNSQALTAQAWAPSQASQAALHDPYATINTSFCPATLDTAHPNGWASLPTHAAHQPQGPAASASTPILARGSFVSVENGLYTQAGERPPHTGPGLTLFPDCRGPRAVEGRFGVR
Description: as §1

[4] = biological target: T3, cynomolgus monkey PVRIG on …; experiment: FACS, FlpinCHO-cyno PVRIG cells; AUC of MFI curve relative to COM701-hIgG1
Description: as §1

[5] = biological target: T4, cynomolgus monkey PVRIG (Novoprotein, Cat NO. C09B) (cynomolgus monkey, UniProt A0A2K5WVV8 41-171); experiment: ELISA, coated cynomolgus monkey PVRIG
T4 construct: Bought reagent; also called cynomolgus monkey PVRIG protein
T4 sequence: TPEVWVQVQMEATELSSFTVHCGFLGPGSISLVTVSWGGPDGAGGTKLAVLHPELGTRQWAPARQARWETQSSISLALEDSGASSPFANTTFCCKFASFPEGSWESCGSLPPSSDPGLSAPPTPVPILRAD

[6] = biological target: T2, human PVRIG on FlpinCHO-PVRIG cells; experiment: FACS, FlpinCHO-PVRIG cells; AUC of MFI curve relative to SRF813-hIgG1
Description: as §1

B1: PVRIG-A11 (Fc fusion)
chain: QLQLVESGGGLVQPGGSLRLSCAASGFTDDYYAIGWFRQAPGKEREGVSCISGSGGSTNYEDSVKGRFAISRDNAKNMVYLQMNDLKPEDTAVYYCAADPFWSAPCTGHNDRYFDVWGQGTLVTVSS
notes: Alpaca VHH joined to human IgG1 Fc (VHH-hinge-CH2-CH3); not shown: human IgG1 hinge-CH2-CH3
EC50 [1]: 0.121 nM
% AUC to COM701-hIgG1 [2]: 117%
% AUC to SRF813-hIgG1 [3]: 48.6%
% AUC to COM701-hIgG1 [4]: 41.3%
EC50 [5]: 0.0289 nM
% AUC to SRF813-hIgG1 [6]: 143%
